Data taken from patent publication US20020173462A1.

Columns and labels:
human fibrinogen (human) = human fibrinogen (human) (UniProt P02671); assay: affinity blot, dilution series of antigen and fibrinogen
[1] = target: human prothrombin (human) (UniProt P00734); assay: affinity blot, dilution series of antigen and prothrombin

Row | Substance | amount of protein detected with 10 ng/ml of fibrinogen (human fibrinogen (human)) [ng] | amount of protein detected with 10 ng/ml of prothrombin [1] [ng]
1 | 60 kDa fibrinogen-binding protein (Eap, extracellular adherence protein) | 0.1 | 0.1
2 | 87 kDa fibrinogen-binding protein (coagulase) | 0.1 | 
